The target in data set [1] is Yeast wild-type Mlh1-Mlh3 (yeast (S. cerevisiae)) (UniProt P38920).
The target of data set [2] is T1, Mlh1-Mlh3 (Saccharomyces cerevisiae) (UniProt P38920+Q12083).
T1 sequence 1: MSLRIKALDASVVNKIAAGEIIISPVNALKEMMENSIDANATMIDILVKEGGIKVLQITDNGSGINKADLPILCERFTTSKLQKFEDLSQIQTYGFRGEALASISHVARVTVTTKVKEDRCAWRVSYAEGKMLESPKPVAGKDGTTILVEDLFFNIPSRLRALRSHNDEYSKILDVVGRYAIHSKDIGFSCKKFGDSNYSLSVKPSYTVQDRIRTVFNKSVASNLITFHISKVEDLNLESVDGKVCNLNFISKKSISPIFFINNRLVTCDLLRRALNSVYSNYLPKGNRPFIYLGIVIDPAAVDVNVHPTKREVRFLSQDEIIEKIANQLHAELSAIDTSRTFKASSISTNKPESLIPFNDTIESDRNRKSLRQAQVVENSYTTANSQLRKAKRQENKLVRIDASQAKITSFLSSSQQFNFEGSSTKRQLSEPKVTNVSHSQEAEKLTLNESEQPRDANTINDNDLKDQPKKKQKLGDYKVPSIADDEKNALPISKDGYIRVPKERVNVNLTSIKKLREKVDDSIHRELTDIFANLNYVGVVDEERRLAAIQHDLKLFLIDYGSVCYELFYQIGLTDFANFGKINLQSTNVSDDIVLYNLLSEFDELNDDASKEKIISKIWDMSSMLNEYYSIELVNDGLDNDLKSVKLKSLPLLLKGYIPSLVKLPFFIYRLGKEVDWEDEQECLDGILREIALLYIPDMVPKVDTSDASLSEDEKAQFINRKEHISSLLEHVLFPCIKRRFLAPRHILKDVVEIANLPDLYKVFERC
T1 sequence 2: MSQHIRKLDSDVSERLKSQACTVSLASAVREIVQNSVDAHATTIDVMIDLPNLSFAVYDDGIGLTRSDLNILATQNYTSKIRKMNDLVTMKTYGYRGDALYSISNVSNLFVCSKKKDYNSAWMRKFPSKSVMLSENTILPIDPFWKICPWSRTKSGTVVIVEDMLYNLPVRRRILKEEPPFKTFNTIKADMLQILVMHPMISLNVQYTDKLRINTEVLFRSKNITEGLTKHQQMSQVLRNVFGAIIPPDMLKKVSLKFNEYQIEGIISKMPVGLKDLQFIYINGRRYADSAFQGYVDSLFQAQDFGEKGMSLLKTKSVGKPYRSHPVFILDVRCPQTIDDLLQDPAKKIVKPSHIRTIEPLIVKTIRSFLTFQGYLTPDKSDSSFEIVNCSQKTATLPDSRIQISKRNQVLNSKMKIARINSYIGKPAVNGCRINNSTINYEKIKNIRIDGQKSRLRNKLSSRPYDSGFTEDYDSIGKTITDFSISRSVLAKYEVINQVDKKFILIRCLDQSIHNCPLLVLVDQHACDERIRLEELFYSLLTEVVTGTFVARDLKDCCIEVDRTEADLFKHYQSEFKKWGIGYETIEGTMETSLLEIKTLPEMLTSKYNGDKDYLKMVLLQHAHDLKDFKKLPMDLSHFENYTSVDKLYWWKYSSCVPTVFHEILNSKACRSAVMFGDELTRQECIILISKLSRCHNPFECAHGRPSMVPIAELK
Briefly: filter binding. Particulars: 2 mM Mg2+; Filter binding: 20 mM Tris-HCl pH 7.5, 0.01 mM EDTA, 2 mM MgCl2, 40 ug/mL BSA, 0.1 mM DTT, 15 uM nucleotide DNA, 10 min at 30 C (20 or 150 mM KCl in Fig 4B …).

“Yeast Msh2-Msh3 (from UniProt P25847 1-964; P25336 1-1018) (complex)”: in data set [1], the amount of nicked product made by Mlh1-Mlh3 on the 7.2 kb +8 loop circular substrate, without and with Msh2-Msh3 (10% without) is 21%; the amount of nicked product made by Mlh1-Mlh3 on the 7.2 kb homoduplex circular substrate, without and with Msh2-Msh3 (15% without) was 36%.

7 kb linear pEAE399 (HindIII): the Kd in data set [2] is 0.065 µM.

2.7 kb linear pUC18 (HindIII) registered a Kd in data set [2] of 0.1 µM.

Consider 12 kb linear pEAE99 (HindIII), for which the Kd in data set [2] was determined as 0.04 µM.

In general, Kd refers to the free concentration of one partner at which half of the binding sites on the other are occupied at equilibrium, for simple one-to-one binding. Low values mean tighter binding, high ones weaker binding.
